Assay results reported in article PMC2583361.

Target: SSB C-terminal peptide (SSB-Ct peptide) (E. coli)
Assay: ITC

Sequence of PriA DNA helicase (P17888 whole entry): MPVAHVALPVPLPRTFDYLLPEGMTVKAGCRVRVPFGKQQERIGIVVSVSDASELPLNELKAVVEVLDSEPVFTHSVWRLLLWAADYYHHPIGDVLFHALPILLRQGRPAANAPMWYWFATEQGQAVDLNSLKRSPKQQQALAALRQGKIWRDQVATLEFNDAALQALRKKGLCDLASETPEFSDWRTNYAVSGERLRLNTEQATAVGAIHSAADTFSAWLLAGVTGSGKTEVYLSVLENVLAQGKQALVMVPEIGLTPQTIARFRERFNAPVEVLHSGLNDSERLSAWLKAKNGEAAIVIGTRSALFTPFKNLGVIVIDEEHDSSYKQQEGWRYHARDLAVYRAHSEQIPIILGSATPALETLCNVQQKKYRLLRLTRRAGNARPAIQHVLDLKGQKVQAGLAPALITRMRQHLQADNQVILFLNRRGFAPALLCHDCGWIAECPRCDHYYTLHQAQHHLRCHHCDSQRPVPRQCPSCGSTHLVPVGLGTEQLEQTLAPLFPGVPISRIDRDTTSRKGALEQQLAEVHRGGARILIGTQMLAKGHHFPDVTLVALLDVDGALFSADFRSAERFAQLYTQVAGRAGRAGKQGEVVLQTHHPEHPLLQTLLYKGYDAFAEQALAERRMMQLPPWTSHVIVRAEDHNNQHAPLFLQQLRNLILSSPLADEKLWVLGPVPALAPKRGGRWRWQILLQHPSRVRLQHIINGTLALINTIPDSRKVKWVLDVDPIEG
Sequence of χ subunit of the DNA polymerase III holoenzyme (P28905 whole entry): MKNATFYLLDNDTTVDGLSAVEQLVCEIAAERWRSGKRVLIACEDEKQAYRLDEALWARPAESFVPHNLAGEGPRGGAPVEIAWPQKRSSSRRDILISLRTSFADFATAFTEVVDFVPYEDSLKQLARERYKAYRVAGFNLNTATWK

Row | Substance | Ka | dH
1 | PriA DNA helicase (from UniProt P17888 1-732) (enzyme) | 1.8e+06 M⁻¹ | -6.9 kcal/mol
2 | χ subunit of the DNA polymerase III holoenzyme (from UniProt P28905 1-147) (natural protein) |  | -8.6 kcal/mol
